Results taken from patent publication US8133683B2, “Methods for detecting biomolecules in a sample” (Taipei Medical University, priority 2009, dated 2012).
“Also recorded” adds a separate entry of the source. Primed or numbered codes have the meaning given here. Ends that are not written are not given here. * marks the point of attachment. FITC = O=C1OC2(c3ccc(O)cc3Oc3cc(O)ccc32)c2ccc(NC(=S)*)cc21; FITC′ = fluorescein isothiocyanate label

Legend:
anti-KY15 antibody = experiment: Charcoal-sorbent peptide binding assay (CPBA), detecting anti-KY15 antibody; conditions: FIG. 2B, anti-KY15 rabbit antiserum
Protocol: (§1) Rabbit sera (30 μl/well) in microplate were 2-fold serially diluted in PBS buffer (137 mM NaCl, 2.7 mM KCl, 10 mM Na2HPO4, 2 mM KH2PO4, pH 7.4). After an aliquot of 30 μl of freshly prepared reagent-A (6 μM FITC-KY15, 100 mM Hepes-pH 7.5, and 2 mM EDTA) was added to each well, the microplate was incubated at 37° C. for 50 minutes. An aliquot of 60 μl of reagent B (0.5 M Hepes-pH 8.0, and 2 mM EDTA) was then added to each well to adjust pH to 8.0 for optimal fluorescence detection. To remove all the free fluorescent peptides, MD-Charcoal suspension (200 μl per well) was added, and the mixture was incubated at room temperature for 5 minutes. […] The binding capacity of antiserum for the fluorescent peptide probe was expressed as fluorescence intensity per well. All experiments were performed in triplicates for each datum point and the data were presented as means±SD.

anti-FF15 antiserum = experiment: CPBA, control serum anti-FF15 antiserum; type: binding, rabbit; conditions: FIG. 2B
Protocol: as §1

[1] = CPBA, control non-immune rabbit serum; type: binding; conditions: FIG. 2B
Protocol: as §1

[2] = target: T1, human serum albumin (HSA) (Homo sapiens, UniProt P02768); experiment: CPBA, detecting HSA; type: binding; conditions: FIG. 4
T1 construct: purchased Sigma-Aldrich A3782
Protocol: (§2) The stock solutions of HSA, ovalbumin, and BGG were prepared as 125 μg/ml in HBS buffer (10 mM Hepes-pH 7.0, and 0.15 M NaCl). Aliquots of 30 μl of each protein placed in microplate wells were 2-fold serial diluted in HBS buffer. After an aliquot of 30 μl of freshly prepared reagent-A (6 μM FITC-RD18/FITC-KY15, 100 mM Hepes-pH 7.5, and 2 mM EDTA) was added to each well, the microplate was incubated at 37° C. for 30 minutes. An aliquot of 60 μl of reagent B (0.5 M Hepes-pH 8.0, and 2 mM EDTA) was then added to each well to adjust pH to 8.0 for optimal fluorescence detection. To remove all the free fluorescent peptides, MD-Charcoal suspension (200 μl per well) was added and incubated at room temperature for 5 minutes. […] Background level of fluorescence intensities was measured by replacing protein samples with HBS buffer. The binding capacities of antigens for the fluorescent peptide probes were expressed as net fluorescence intensity per well. All experiments were performed at least in triplicates for each datum point and the data were presented as means±SD.

[3] = Capturing capacity and rate of MD-Charcoal for FITC-labeled molecules; conditions: for Remaining fluorescence intensities: 3 μM in 60 μl, Ex485/Em535, Gain 35, means±SD (n=3)
Protocol: Aliquots of FITC-labeled molecules (3 μM in 60 μl) mixed with equal volume of reagent B (2 mM EDTA, 0.5 M Hepes-pH 8.0) were treated with MD-Charcoal (200 μl/well) at room temperature for 1, 5, or 10 minutes.
Data were analyzed by one-way ANOVA and Tukey-HSD multiple range test, and presented as means±SD (n=3). Different successive superscript represents significant difference at p<0.05. The background value from empty well served as blank.

ovalbumin = target: T2, ovalbumin (Gallus gallus, UniProt P01012); experiment: CPBA, control protein ovalbumin; type: binding, chicken; conditions: FIG. 4
T2 construct: ovalbumin (#A5503; from chicken egg white; 99% in purity); purchased Sigma-Aldrich A5503; host or cells: chicken egg white
T2 sequence (P01012 1-386): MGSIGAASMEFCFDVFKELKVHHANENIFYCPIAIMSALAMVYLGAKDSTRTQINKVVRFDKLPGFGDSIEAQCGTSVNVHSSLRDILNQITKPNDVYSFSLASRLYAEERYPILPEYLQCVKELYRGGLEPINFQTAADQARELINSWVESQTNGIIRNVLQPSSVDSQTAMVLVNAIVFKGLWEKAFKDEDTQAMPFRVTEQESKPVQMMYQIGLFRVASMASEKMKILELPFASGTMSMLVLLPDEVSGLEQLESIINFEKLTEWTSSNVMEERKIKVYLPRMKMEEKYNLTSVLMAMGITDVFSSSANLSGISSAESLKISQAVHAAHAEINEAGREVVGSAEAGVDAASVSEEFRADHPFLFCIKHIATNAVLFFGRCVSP
Protocol: as §2

[4] = test system: bovine gamma globulin (BGG); experiment: CPBA, control protein bovine gamma globulin; type: binding; conditions: FIG. 4
Protocol: as §2

Substance | Binding of peptide probe with anti-KY15 antibody (anti-KY15 antibody) | Affinity of anti-FF15 antiserum for the peptide probe (anti-FF15 antiserum) | Affinity of non-immune rabbit serum for the peptide probe [1] | Binding of peptide probe with HSA [2] | Remaining fluorescence intensities (% of No Treatment) ([3]; MD-Charcoal treatment 1 min) | Remaining fluorescence intensities ([3]; MD-Charcoal treatment 1 min) | Remaining fluorescence intensities (% of No Treatment) ([3]; MD-Charcoal treatment 5 min) | Remaining fluorescence intensities ([3]; MD-Charcoal treatment 5 min) | Remaining fluorescence intensities (% of No Treatment) ([3]; MD-Charcoal treatment 10 min) | Remaining fluorescence intensities ([3]; MD-Charcoal treatment 10 min) | Specificity for albumin compared to control proteins, ovalbumin and bovine gamma globulin [2] | Interaction of ovalbumin with peptide probe (ovalbumin) | Interaction of bovine gamma globulin with peptide probe [4]
FITC-KY15: N-terminal FITC-labeled peptide KY15, amino acid sequence KSVGRDEREDITYTY; peptide probe for anti-KY15 antibody ({FITC}-KSVGRDEREDITYTY) | specific binding; also recorded: can be detected | did not show affinity | did not show affinity | did not have affinity | (0.6%) | 1,320 ± 410^2b | (0.5%) | 1,037 ± 33^2b | (0.4%) | 943 ± 29^2b |  |  | 
FITC-RD18: N-terminal FITC-labeled peptide RD18, amino acid sequence RLIEDICLPRWGCLWEDD; albumin-specific peptide probe ({FITC′}-RLIEDICLPRWGCLWEDD; cysteine pairing not given here) |  |  |  | linearly dose-dependent |  |  |  |  |  |  | highly specific | did not interact | did not interact
